FireProtDB (doi:10.1093/protein/15.6.455)

B1: Cytochrome c-551 wild type, P00099 (protein)
chain: MKPYALLSLLATGTLLAQGAWAEDPEVLFKNKGCVACHAIDTKMVGPAYKDVAAKFAGQAGAEAELAQRIKNGSQGVWGPIPMPPNAVSDDEAQTLAKWVLSQK
B2: Cytochrome c-552 wild type, P15452 (protein)
chain: MKKFLLVAVVGLAGITFANEQLAKQKGCMACHDLKAKKVGPAYADVAKKYAGRKDAVDYLAGKIKKGGSGVWGSVPMPPQNVTDAEAKQLAQWILSIK

Conditions: pH 3.6, Thermal, DSC, sodium acetate 50 mM, reversible: yes, whole UniProt chain shown; for heat capacity change of unfolding / unfolding enthalpy (calorimetric): 62.6 °C
[1] = Pseudomonas aeruginosa (strain ATCC 15692 / DSM 22644 / CIP 104116 / JCM 14847 / LMG 12228 / 1C / PRS 101 / PAO1)
[2] = Hydrogenobacter thermophilus (strain DSM 6534 / IAM 12695 / TK-6)

Row | Protein | heat capacity change of unfolding [1] [kcal/mol/K] | unfolding enthalpy (calorimetric) [1] [kJ/mol] | Tm [1] [°C] | heat capacity change of unfolding [2] [kcal/mol/K] | unfolding enthalpy (calorimetric) [2] [kJ/mol] | Tm [2] [°C]
1 | B1 | 0.72 | 254 | 62.6 |  |  | 
2 | B2 |  |  |  | 0.54 | 291 | 94
